Test results as given in patent publication US20210324359A1, “USE OF GRAM-NEGATIVE LYSIN-ANTIMICROBIAL PEPTIDE (AMP) POLYPEPTIDE CONSTRUCTS IN TREATING ENDOCARDITIS” (priority 2020, published 2021).

B1: GN11: lysin obtained from Pseudomonas putida KT2440 (SEQ ID NO: 208) (protein, listed as Pseudomonas putida)
chain: MTYNAGTKPRAETDYLVVHCSATRPSQDIGAADINRWHRAKGWRCIGYHFVIRRNGVVEEGRELDQIGAHVEGHNINSVGICMAGGVTEADINVPENNFTPEQFASLKHLLGELKEKYPSATIQGHRDFPKVAKACPSFDVKPWVAANL
B2: GN7: lysin obtained from a marine metagenome (SEQ ID NO: 206) (protein)
chain: MTPFDHALELTLGLEGGYSNHLMDRGGETMCGITEAVARRHGWEGEMRDLPIEMVRHIYKVDYWDPLMGDYLGEHNPELAEELFDTAVNCGVGFASKILQKSINVLNRNRTEDIAEDGQIGPQTLKALRDLARRDYDYLLECCKILQGNHYISLAHRDPTQRIFIRGWLTRV
modifications: GOS_4958713 hypothetical protein GOS_4958713, partial [marine metagenome]

Experiments:
[1] = system: carbepenam-resistant clinical isolate WC-453; test: MIC in CAA without or with 25% human serum (Table 5); type: cell-based, Pseudomonas aeruginosa; settings: for CAA/HuS MIC: CAA supplemented with 25% human serum
Procedure: MIC values were determined using a modification of the standard broth microdilution reference method defined by the Clinical and Laboratory Standards Institute (CLSI), CLSI. […] Methods for Dilution Antimicrobial Susceptibility Tests for Bacteria That Grow Aerobically; Approved Standard-10th Edition. Clinical and Laboratory Standards Institute, Wayne, Pa.

[2] = system: P. aeruginosa strain WC-453; test: Time-kill assay in HEPES or CAA with 25% human serum (Tables 7, 8); type: cell-based, Pseudomonas aeruginosa; settings: lysin 10 μg/ml, WC-453; for HEPES (Log10 CFU/mL), 1 hr / HEPES (Log10 CFU/mL), 3 hr: 25 mM HEPES pH 7.4
Procedure: Exponential phase bacteria were then pelleted and resuspended in 1/5 culture volume of 25 mM HEPES, pH 7.4 before a final adjustment to an optical density corresponding to a McFarland value of 0.5. […] All treatments were incubated at 37° C. with aeration. At time points before the addition of lysin (or buffer control) and at 1 hour and 3 hours intervals thereafter, culture samples were removed for quantitative plating on CAA agar plates.

[3] = Isoelectric point (pI) of the polypeptides; type: physicochemical
Text: By comparing the sequences and components of the various polypeptides, the effect of a particular structural modification on isoelectric point (a higher pI favors outer membrane penetration) and activity (as assessed by MIC) can be determined.

Molecule	activity in CAA supplemented with human serum (25%) [1]	CAA MIC [1]	CAA/HuS MIC [1]	HEPES (Log10 CFU/mL), 1 hr ([2]; 1 hr)	HEPES (Log10 CFU/mL), 3 hr ([2]; 3 hr)	pI (isoelectric point) [3]	CAA/HuS (Log10 CFU/mL), 1 hr ([2]; CAA + 25% human serum, 1 hr)	CAA/HuS (Log10 CFU/mL), 3 hr ([2]; CAA + 25% human serum, 3 hr)
B1	active	32	128	6.7 Log10 CFU/mL	<3.7 Log10 CFU/mL	7.3		
B2	active	>128	128	7.5 Log10 CFU/mL	6.2 Log10 CFU/mL	5.6	7.0 Log10 CFU/mL	7.0 Log10 CFU/mL
